B2: Top3/GST-Rmi1 complex (complex)
chain 1: MKVLCVAEKNSIAKAVSQILGGGRSTSRDSGYMYVKNYDFMFSGFPFARNGANCEVTMTSVAGHLTGIDFSHDSHGWGKCAIQELFDAPLNEIMNNNQKKIASNIKREARNADYLMIWTDCDREGEYIGWEIWQEAKRGNRLIQNDQVYRAVFSHLERQHILNAARNPSRLDMKSVHAVGTRIEIDLRAGVTFTRLLTETLRNKLRNQATMTKDGAKHRGGNKNDSQVVSYGTCQFPTLGFVVDRFERIRNFVPEEFWYIQLVVENKDNGGTTTFQWDRGHLFDRLSVLTFYETCIETAGNVAQVVDLKSKPTTKYRPLPLTTVELQKNCARYLRLNAKQSLDAAEKLYQKGFISYPRTETDTFPHAMDLKSLVEKQAQLDQLAAGGRTAWASYAASLLQPENTSNNNKFKFPRSGSHDDKAHPPIHPIVSLGPEANVSPVERRVYEYVARHFLACCSEDAKGQSMTLVLDWAVERFSASGLVVLERNFLDVYPWARWETTKQLPRLEMNALVDIAKAEMKAGTTAPPKPMTESELILLMDTNGIGTDATIAEHIDKIQVRNYVRSEKVGKETYLQPTTLGVSLVHGFEAIGLEDSFAKPFQRREMEQDLKKICEGHASKTDVVKDIVEKYRKYWHKTNACKNTLLQVYDRVKASM
chain 2: MSFSSILSQDITDDITPPAYSATLGSREQIVFRAYQNEPWLAGTASNLILDKKLVIVDRELLFQVLMVENITKSKLTQIDDIKTKLDPKKQKVDRLRSGAQGNGAKKYEVITQVDMEDDGNVADNNCAKENNSNNNSSAAKNKAVFKLTLQSKSGDVFFAINSTPISWSSCMLGSKIVILPGTVFNRGVFILKDSQVIFLGGINRVWNENRDQKFCDYLESKLQRDKQLVNGGSKKRKAND
B3: Top3 (untagged, subunit of the Top3/Rmi1 complex) (enzyme)
chain: MKVLCVAEKNSIAKAVSQILGGGRSTSRDSGYMYVKNYDFMFSGFPFARNGANCEVTMTSVAGHLTGIDFSHDSHGWGKCAIQELFDAPLNEIMNNNQKKIASNIKREARNADYLMIWTDCDREGEYIGWEIWQEAKRGNRLIQNDQVYRAVFSHLERQHILNAARNPSRLDMKSVHAVGTRIEIDLRAGVTFTRLLTETLRNKLRNQATMTKDGAKHRGGNKNDSQVVSYGTCQFPTLGFVVDRFERIRNFVPEEFWYIQLVVENKDNGGTTTFQWDRGHLFDRLSVLTFYETCIETAGNVAQVVDLKSKPTTKYRPLPLTTVELQKNCARYLRLNAKQSLDAAEKLYQKGFISYPRTETDTFPHAMDLKSLVEKQAQLDQLAAGGRTAWASYAASLLQPENTSNNNKFKFPRSGSHDDKAHPPIHPIVSLGPEANVSPVERRVYEYVARHFLACCSEDAKGQSMTLVLDWAVERFSASGLVVLERNFLDVYPWARWETTKQLPRLEMNALVDIAKAEMKAGTTAPPKPMTESELILLMDTNGIGTDATIAEHIDKIQVRNYVRSEKVGKETYLQPTTLGVSLVHGFEAIGLEDSFAKPFQRREMEQDLKKICEGHASKTDVVKDIVEKYRKYWHKTNACKNTLLQVYDRVKASM

For test [1], the target named is Mer3-Strep (full-length S. cerevisiae Mer3 with C-terminal 2xStrep-II tag) (Saccharomyces cerevisiae (SK1)) (UniProt P51979). The test can be described thus: SEC-MALS.
The target of test [2] is B3. The test can be described thus: cross-linking.
Test [3] addresses T1, MBP-Mlh2 (Saccharomyces cerevisiae (SK1), UniProt Q07980 1-695).
T1 sequence: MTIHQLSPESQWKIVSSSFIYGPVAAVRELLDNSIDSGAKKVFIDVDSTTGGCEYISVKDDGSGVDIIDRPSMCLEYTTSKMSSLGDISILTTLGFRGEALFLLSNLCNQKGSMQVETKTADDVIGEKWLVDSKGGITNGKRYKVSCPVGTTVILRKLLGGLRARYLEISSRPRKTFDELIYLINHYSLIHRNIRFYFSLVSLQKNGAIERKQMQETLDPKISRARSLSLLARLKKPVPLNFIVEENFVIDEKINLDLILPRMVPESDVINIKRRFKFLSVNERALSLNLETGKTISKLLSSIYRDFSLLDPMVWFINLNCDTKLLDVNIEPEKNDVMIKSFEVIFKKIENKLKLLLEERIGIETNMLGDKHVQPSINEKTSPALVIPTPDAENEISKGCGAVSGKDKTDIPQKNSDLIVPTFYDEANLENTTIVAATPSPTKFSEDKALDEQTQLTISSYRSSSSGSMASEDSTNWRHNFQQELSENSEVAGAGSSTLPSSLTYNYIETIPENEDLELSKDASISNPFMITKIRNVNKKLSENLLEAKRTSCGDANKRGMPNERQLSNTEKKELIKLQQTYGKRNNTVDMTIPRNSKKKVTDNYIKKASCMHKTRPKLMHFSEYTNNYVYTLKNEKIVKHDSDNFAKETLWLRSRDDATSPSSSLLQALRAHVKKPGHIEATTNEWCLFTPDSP
The test can be described thus: cross-linking.

In test [4] the target is T2, MBP-Mlh1/MBP-Mlh2 complex (Saccharomyces cerevisiae (SK1), UniProt P38920;Q07980).
T2 sequence 1: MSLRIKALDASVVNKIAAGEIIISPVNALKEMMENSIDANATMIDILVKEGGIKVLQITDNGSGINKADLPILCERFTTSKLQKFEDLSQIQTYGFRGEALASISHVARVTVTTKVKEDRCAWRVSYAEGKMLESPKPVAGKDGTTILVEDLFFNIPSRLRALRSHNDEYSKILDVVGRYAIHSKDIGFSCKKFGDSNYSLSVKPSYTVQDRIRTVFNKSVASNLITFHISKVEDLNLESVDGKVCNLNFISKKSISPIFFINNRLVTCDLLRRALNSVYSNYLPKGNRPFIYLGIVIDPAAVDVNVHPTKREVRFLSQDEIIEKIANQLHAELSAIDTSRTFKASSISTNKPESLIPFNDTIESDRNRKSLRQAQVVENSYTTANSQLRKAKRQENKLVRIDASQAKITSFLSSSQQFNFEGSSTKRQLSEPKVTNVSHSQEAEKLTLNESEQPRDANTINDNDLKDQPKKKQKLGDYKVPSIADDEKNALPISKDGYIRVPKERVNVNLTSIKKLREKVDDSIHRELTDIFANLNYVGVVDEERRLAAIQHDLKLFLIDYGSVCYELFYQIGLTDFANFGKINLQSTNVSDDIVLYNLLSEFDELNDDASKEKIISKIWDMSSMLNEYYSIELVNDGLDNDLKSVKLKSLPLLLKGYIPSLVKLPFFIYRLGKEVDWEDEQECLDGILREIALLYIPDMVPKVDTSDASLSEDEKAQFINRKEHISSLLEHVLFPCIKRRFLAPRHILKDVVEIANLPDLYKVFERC
T2 sequence 2: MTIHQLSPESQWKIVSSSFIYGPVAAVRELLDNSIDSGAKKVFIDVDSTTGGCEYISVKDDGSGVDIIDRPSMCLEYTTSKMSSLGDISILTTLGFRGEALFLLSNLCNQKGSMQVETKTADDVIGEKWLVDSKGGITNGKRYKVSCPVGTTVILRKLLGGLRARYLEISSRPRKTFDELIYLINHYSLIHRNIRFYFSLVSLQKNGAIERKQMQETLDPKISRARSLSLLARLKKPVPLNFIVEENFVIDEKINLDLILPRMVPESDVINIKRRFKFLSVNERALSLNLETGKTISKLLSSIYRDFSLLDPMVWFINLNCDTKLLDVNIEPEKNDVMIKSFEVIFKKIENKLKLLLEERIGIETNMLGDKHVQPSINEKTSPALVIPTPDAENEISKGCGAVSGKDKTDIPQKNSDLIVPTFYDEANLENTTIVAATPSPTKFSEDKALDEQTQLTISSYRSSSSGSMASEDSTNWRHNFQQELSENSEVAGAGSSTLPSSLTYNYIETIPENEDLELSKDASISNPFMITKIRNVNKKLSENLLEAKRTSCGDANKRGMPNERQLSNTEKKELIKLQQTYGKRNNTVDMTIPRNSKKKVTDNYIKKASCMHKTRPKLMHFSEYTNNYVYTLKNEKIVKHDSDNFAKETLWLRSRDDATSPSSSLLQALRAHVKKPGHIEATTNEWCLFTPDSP
Nature of the test: pull-down.

Test [5] has as its target T3, MBP-Mlh1 (Saccharomyces cerevisiae (SK1), UniProt P38920 1-769).
T3 sequence: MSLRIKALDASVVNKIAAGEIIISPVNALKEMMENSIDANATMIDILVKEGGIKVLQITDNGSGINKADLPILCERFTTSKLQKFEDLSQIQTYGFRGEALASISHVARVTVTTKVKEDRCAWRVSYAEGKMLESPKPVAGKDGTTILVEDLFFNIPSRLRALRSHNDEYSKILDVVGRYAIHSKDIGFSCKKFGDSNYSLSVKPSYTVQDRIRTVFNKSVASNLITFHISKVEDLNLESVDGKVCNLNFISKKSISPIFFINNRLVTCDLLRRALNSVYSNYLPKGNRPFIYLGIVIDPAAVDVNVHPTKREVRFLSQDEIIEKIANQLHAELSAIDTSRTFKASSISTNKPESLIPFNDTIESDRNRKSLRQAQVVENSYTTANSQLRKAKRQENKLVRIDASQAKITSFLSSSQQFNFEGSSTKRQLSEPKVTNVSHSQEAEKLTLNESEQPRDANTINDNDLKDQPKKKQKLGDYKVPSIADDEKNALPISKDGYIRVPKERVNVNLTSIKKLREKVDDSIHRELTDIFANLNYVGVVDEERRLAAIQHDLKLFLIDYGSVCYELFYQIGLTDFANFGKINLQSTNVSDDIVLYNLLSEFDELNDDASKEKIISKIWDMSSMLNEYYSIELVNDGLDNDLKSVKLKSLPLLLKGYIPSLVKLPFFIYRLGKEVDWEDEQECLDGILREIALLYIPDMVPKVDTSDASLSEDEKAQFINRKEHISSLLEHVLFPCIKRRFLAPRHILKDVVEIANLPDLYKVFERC
Nature of the test: cross-linking.

Test [6] concerns the target B2. Nature of the test: pull-down.

As to “Mer3-Strep (full-length S. cerevisiae Mer3 with C-terminal 2xStrep-II tag) (from UniProt P51979 1-1187) (enzyme)”, the stoichiometry N in test [1] was determined as 2.

B1: Rmi1 (subunit of the Top3/Rmi1 complex as used in XL-MS) (natural protein)
chain: MSFSSILSQDITDDITPPAYSATLGSREQIVFRAYQNEPWLAGTASNLILDKKLVIVDRELLFQVLMVENITKSKLTQIDDIKTKLDPKKQKVDRLRSGAQGNGAKKYEVITQVDMEDDGNVADNNCAKENNSNNNSSAAKNKAVFKLTLQSKSGDVFFAINSTPISWSSCMLGSKIVILPGTVFNRGVFILKDSQVIFLGGINRVWNENRDQKFCDYLESKLQRDKQLVNGGSKKRKAND
With B1, the binding result in test [2] and in test [3] was “binds” each time.
Take B2: the binding result in test [4] is on record as “binds”.
For the molecule B3, in test [5], the binding result is “binds”.

B4: His-tagged Sgs1(1-107) fragment (domain or fragment)
chain: MVTKPSHNLRREHKWLKETATLQEDKDFVFQAIQKHIANKRPKTNSPPTTPSKDECGPGTTNFITSIPASGPTNTATKQHEVMQTLSNDTEWLSYTATSNQYADVPM
As for B4, the binding result in test [6] is recorded as “binds”.

B5: Sgs1(1-605) fragment, untagged (domain or fragment)
chain: MVTKPSHNLRREHKWLKETATLQEDKDFVFQAIQKHIANKRPKTNSPPTTPSKDECGPGTTNFITSIPASGPTNTATKQHEVMQTLSNDTEWLSYTATSNQYADVPMVDIPASTSVVSNPRTPNGSKTHNFNTFRPHMASSLVENDSSRNLGSRNNNKSVIDNSSIGKQLENDIKLEVIRLQGSLIMALKEQSKLLLQKCSIIESTSLSEDAKRLQLSRDIRPQLSNMSIRIDSLEKEIIKAKKDGMSKDQSKGRSQVSSQDDNIISSILPSPLEYNTSSRNSNLTSTTATTVTKALAITGAKQNITNNTGKNSNNDSNNDDLIQVLDDEDDIDCDPPVILKEGAPHSPAFPHLHMTSEEQDELTRRRNMRSREPVNYRIPDRDDPFDYVMGKSLRDDYPDVEREEDELTMEAEDDAHSSYMTTRDEEKEENELLNQSDFDFVVNDDLDPTQDTDYHDNMDVSANIQESSQEGDTRSTITLSQNKNVQVILSSPTAQSVPSNGQNQIGVEHIDLLEDDLEKDAILDDSMSFSFGRQHMPMSHSDLELIDSEKENEDFEEDNNNNGIEYLSDSDLERFDEERENRTQVADIQELDNDLKIITERKL
Turning to B5, in test [6], the binding result is reported as “binds”.

As usually defined, the stoichiometry N is the number of molecules, sites or subunits per partner or assembly.
